T1: peptide corresponding to Beclin's BH3 domain (aa 108-127)
T1 chain: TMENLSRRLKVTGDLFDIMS

T2: mutant BH3 peptide (aa 108-127) in which Thr119 was substituted to alanine (T119A)
T2 chain: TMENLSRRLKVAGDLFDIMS

B1: Flag-tagged DAPk (full length) (protein)
chain: MTVFRQENVDDYYDTGEELGSGQFAVVKKCREKSTGLQYAAKFIKKRRTKSSRRGVSREDIEREVSILKEIQHPNVITLHEVYENKTDVILILELVAGGELFDFLAEKESLTEEEATEFLKQILNGVYYLHSLQIAHFDLKPENIMLLDRNVPKPRIKIIDFGLAHKIDFGNEFKNIFGTPEFVAPEIVNYEPLGLEADMWSIGVITYILLSGASPFLGDTKQETLANVSAVNYEFEDEYFSNTSALAKDFIRRLLVKDPKKRMTIQDSLQHPWIKPKDTQQALSRKASAVNMEKFKKFAARKKWKQSVRLISLCQRLSRSFLSRSNMSVARSDDTLDEEDSFVMKAIIHAINDDNVPGLQHLLGSLSNYDVNQPNKHGTPPLLIAAGCGNIQILQLLIKRGSRIDVQDKGGSNAVYWAARHGHVDTLKFLSENKCPLDVKDKSGEMALHVAARYGHADVAQLLCSFGSNPNIQDKEEETPLHCAAWHGYYSVAKALCEAGCNVNIKNREGETPLLTASARGYHDIVECLAEHGADLNACDKDGHIALHLAVRRCQMEVIKTLLSQGCFVDYQDRHGNTPLHVACKDGNMPIVVALCEANCNLDISNKYGRTPLHLAANNGILDVVRYLCLMGASVEALTTDGKTAEDLARSEQHEHVAGLLARLRKDTHRGLFIQQLRPTQNLQPRIKLKLFGHSGSGKTTLVESLKCGLLRSFFRRRRPRLSSTNSSRFPPSPLASKPTVSVSINNLYPGCENVSVRSRSMMFEPGLTKGMLEVFVAPTHHPHCSADDQSTKAIDIQNAYLNGVGDFSVWEFSGNPVYFCCYDYFAANDPTSIHVVVFSLEEPYEIQLNQVIFWLSFLKSLVPVEEPIAFGGKLKNPLQVVLVATHADIMNVPRPAGGEFGYDKDTSLLKEIRNRFGNDLHISNKLFVLDAGASGSKDMKVLRNHLQEIRSQIVSVCPPMTHLCEKIISTLPSWRKLNGPNQLMSLQQFVYDVQDQLNPLASEEDLRRIAQQLHSTGEINIMQSETVQDVLLLDPRWLCTNVLGKLLSVETPRALHHYRGRYTVEDIQRLVPDSDVEELLQILDAMDICARDLSSGTMVDVPALIKTDNLHRSWADEEDEVMVYGGVRIVPVEHLTPFPCGIFHKVQVNLCRWIHQQSTEGDADIRLWVNGCKLANRGAELLVLLVNHGQGIEVQVRGLETEKIKCCLLLDSVCSTIENVMATTLPGLLTVKHYLSPQQLREHHEPVMIYQPRDFFRAQTLKETSLTNTMGGYKESFSSIMCFGCHDVYSQASLGMDIHASDLNLLTRRKLSRLLDPPDPLGKDWCLLAMNLGLPDLVAKYNTSNGAPKDFLPSPLHALLREWTTYPESTVGTLMSKLRELGRRDAADFLLKASSVFKINLDGNGQEAYASSCNSGTSYNSISSVVSR
B2: DAPk's catalytic domain (DK1), bacterially purified (protein)
chain: MTVFRQENVDDYYDTGEELGSGQFAVVKKCREKSTGLQYAAKFIKKRRTKSSRRGVSREDIEREVSILKEIQHPNVITLHEVYENKTDVILILELVAGGELFDFLAEKESLTEEEATEFLKQILNGVYYLHSLQIAHFDLKPENIMLLDRNVPKPRIKIIDFGLAHKIDFGNEFKNIFGTPEFVAPEIVNYEPLGLEADMWSIGVITYILLSGASPFLGDTKQETLANVSAVNYEFEDEYFSNTSALAKDFIRRLLVKDPKKRMTIQDSLQHPWIKPKDTQQALS

Tests used:
[1] = biological target: GST protein (GST alone) [GST: P08515]
[2] = biological target: Flag-tagged Beclin-1 (wild type)
[3] = biological target: GST-Beclin-1 fusion protein (wild type, bacterially purified, not phosphorylated)
[4] = biological target: T1, peptide corresponding to Beclin's BH3 …
[5] = biological target: T2, mutant BH3 peptide (aa 108-127) in …

GST-Beclin-1 fusion protein (wild type, bacterially purified, not phosphorylated), sequence (chain, as listed by the source): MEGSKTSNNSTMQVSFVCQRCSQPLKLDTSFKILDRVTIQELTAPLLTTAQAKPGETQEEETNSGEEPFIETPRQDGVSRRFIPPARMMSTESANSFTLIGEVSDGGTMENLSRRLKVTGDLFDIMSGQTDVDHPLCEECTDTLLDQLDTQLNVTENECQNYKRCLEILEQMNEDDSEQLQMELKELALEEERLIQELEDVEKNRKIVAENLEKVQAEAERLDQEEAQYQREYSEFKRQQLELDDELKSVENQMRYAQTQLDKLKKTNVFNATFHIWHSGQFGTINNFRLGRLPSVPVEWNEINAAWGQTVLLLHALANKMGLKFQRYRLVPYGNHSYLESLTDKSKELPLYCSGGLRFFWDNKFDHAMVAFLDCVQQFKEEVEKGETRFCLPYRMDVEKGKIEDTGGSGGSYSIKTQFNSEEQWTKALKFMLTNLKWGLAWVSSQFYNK
GST protein (GST alone) [GST: P08515], sequence (P08515 whole entry): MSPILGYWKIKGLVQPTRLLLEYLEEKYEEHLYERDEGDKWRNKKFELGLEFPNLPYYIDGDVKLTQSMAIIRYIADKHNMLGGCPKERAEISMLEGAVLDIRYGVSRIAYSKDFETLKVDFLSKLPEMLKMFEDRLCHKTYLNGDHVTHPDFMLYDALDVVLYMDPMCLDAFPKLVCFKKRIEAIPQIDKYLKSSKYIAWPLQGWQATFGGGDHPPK
Flag-tagged Beclin-1 (wild type), sequence (chain, as listed by the source): as the sequence (chain, as listed by the source) above

Protein	in vitro kinase assay, 33P incorporation (X-ray film) [1]	in vitro kinase assay, 33P incorporation (X-ray film) [2]	in vitro kinase assay, 33P incorporation (X-ray film) [3]	phosphorylation site mapping by mass spectrometry [3]	peptide phosphorylation, filter assay counts against substrate concentration [4]	peptide phosphorylation, filter assay counts [5]
B1	GST-Beclin-1, but not GST alone, was phosphorylated by DAPk	The phosphorylation by Flag-tagged (60 ng) DAPk was also observed when Flag-tagged Beclin-1 (250 ng), immunoprecipitated from HEK293T cells, was used as a substrate	GST-Beclin-1, but not GST alone, was phosphorylated by DAPk	two phosphorylation sites were identified with good accuracy ... a phosphorylation on S104 or T108, and the second was identified as Thr119		
B2					DAPk phosphorylates Beclin's BH3 peptide in a dose-dependent manner	Changing Thr119 to alanine strongly inhibited the extent of peptide phosphorylation
